Tests used:
Test in all cases: cell-based or functional assay
[1] = target: HIV-1 JR-CSF Env V120A (HIV-1 (isolate JR-CSF)) (UniProt P20871)
[2] = target: HIV-1 Env of isolate 98CN009 (HIV-1)
[3] = target: HIV-1 Env of isolate VLGCA1 (clade A), on pseudovirus (HIV-1)
[4] = target: HIV-1 Env of isolate MGRM-F1-013 (subtype F), on pseudovirus (HIV-1)
[5] = target: HIV-1 Env of isolate MGRM-AE-006 (CRF01_AE), on pseudovirus (HIV-1)
[6] = target: HIV-1 Env of isolate MGRM-F1-010 (subtype F), on pseudovirus (HIV-1)
[7] = target: HIV-1 Env of isolate THR0.18 (HIV-1)
[8] = target: HIV-1 Env of isolate 92WR009 (HIV-1)
[9] = target: HIV-1 Env of isolate MGRM-D-011 (HIV-1)
[10] = target: HIV-1 MGRM-C-010 Env (HIV-1)
[11] = target: HIV-1 Env of isolate MGRM-D-008 (clade D) (HIV-1)
[12] = target: HIV-1 MGRM-F1-012 Env (pseudovirus) (HIV-1)
[13] = target: HIV-1 IAVI-C18 envelope protein (Env) on pseudovirus (HIV-1)
[14] = target: HIV-1 Env of isolate MGRM-D-014 (clade D) (HIV-1)
[15] = target: HIV-1 IAVI-C3 envelope protein (Env) on pseudovirus (HIV-1)
[16] = target: HIV-1 Env of pseudovirus JRCSF, clade B (HIV-1) (UniProt P20871)
[17] = target: HIV-1 MGRM-A-010 envelope glycoprotein (Env) (HIV-1)
[18] = target: HIV-1 Env of isolate MGRM-F1-015 (HIV-1)
[19] = target: HIV-1 Env of isolate MG RM-AG-002 (HIV-1)
[20] = target: HIV-1 Env of isolate MGRM-C-017 (pseudovirus) (HIV-1 isolate MGRM-C-017, subtype C)
[21] = target: HIV-1 Env of isolate MGRM-C-012 (pseudovirus) (HIV-1 isolate MGRM-C-012, subtype C)
[22] = target: HIV-1 MGRM-Chronic-B-010 Env (pseudovirus) (HIV-1)
[23] = target: HIV-1 Env of isolate 92UG005 (subtype D) (HIV-1)
[24] = target: HIV-1 Env of isolate MG RM-AG-003 (HIV-1)
[25] = target: HIV-1 Env of isolate 98IN022 (pseudovirus) (HIV-1 isolate 98IN022, subtype C)
[26] = target: HIV-1 NL43 envelope protein (Env) on pseudotyped virus (HIV-1 NL43)
[27] = target: HIV-1 94UG103 envelope protein (Env) on pseudotyped virus (HIV-1 isolate 94UG103)
[28] = target: HIV-1 JRFL envelope glycoprotein (Env) on pseudovirus (HIV-1)
[29] = target: HIV-1 Env of isolate MGRM-F1-004 (HIV-1)
[30] = target: HIV-1 envelope glycoprotein (Env) of isolate MGRM-C-020, on pseudovirus (HIV-1)
[31] = target: HIV-1 envelope glycoprotein (Env) of isolate MGRM-C-015, on pseudovirus (HIV-1)
[32] = target: HIV-1 Env of isolate MGRM-G-017 (subtype G) (HIV-1)
[33] = target: HIV-1 Env of isolate MGRM-G-024 (subtype G) (HIV-1)

Chain of 5345_I01 (PGT-137) (antibody) (VH): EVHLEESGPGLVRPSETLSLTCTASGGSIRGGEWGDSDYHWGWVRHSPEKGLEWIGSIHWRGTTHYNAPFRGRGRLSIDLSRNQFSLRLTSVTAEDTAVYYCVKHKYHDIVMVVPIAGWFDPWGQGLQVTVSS
Chain of 5345_I01 (PGT-137) (antibody) (VL): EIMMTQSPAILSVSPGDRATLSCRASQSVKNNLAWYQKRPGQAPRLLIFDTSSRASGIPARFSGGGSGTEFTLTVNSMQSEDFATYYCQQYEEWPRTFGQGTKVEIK
Chain of 1443_C16 (PG16) (TCN-116) (antibody) (VH): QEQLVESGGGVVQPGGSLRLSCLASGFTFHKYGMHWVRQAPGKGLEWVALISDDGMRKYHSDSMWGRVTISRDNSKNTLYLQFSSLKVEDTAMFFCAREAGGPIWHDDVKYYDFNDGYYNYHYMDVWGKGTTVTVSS
Chain of 1443_C16 (PG16) (TCN-116) (antibody) (VL): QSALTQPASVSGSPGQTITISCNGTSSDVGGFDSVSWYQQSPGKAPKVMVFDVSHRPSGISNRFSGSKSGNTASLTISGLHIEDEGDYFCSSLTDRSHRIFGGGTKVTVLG
Chain of 5329_C19 (PGT-136) (antibody) (VH): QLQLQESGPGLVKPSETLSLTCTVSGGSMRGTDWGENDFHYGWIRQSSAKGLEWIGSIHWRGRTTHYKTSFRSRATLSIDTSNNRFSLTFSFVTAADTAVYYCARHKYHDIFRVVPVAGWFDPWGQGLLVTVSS
Chain of 5329_C19 (PGT-136) (antibody) (VL): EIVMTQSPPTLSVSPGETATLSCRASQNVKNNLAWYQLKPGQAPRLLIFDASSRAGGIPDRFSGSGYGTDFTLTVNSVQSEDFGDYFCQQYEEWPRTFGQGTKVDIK

| Substance | Fold IC50 increase relative to wild-type [1] [fold] | IC50 [2] [mg/L] | IC50, single-round pseudovirus neutralization [3] [mg/L] | IC50, pseudovirus neutralization [4] [mg/L] | IC50, single-round pseudovirus neutralization [5] [mg/L] | IC50, pseudovirus neutralization [6] [mg/L] | IC50 [7] [mg/L] | neutralization IC50 [8] [mg/L] | IC50 [9] [mg/L] | IC50 [10] [mg/L] | IC50 (µg/ml), pseudovirus neutralization [11] [µg/mL] | IC50 (µg/ml), pseudovirus neutralization [12] [µg/mL] | neutralization IC50 [13] [mg/L] | IC50 (µg/ml), pseudovirus neutralization [14] [µg/mL] | neutralization IC50 [15] [mg/L] | IC50 (µg/ml), pseudovirus neutralization [16] [µg/mL] | IC50 (µg/ml), pseudovirus neutralization [17] [µg/mL] | IC50 [18] [mg/L] | neutralization IC50 [19] [mg/L] | IC50 (µg/mL) neutralization [20] [µg/mL] | also measured |
| --- | --- | --- | --- | --- | --- | --- | --- | --- | --- | --- | --- | --- | --- | --- | --- | --- | --- | --- | --- | --- | --- |
| 5136_H01 (PGT-131) (antibody) | 0.7 | 4.05 | > 50 | > 50 | 0.026 | > 50 | > 50 | 3.12 | 0.756 | – | – | – | – | – | – | – | – | – | – | – | – |
| b12 (antibody) | – | – | – | – | – | – | – | – | – | > 50 | > 50 | > 50 | > 50 | > 50 | 5 | 0.21 | > 50 | – | – | – | – |
| 5145_B14 (PGT-127) (antibody) | 1.5 | – | – | – | – | – | – | – | – | – | – | – | – | – | – | – | – | > 50 | > 50 | 3.4 | IC50 (µg/mL) neutralization [21]: 1.07 µg/mL; IC50, pseudovirus neutralization [22]: 0.019 mg/L; IC50 (µg/mL), pseudovirus neutralization [23]: 1.11 µg/mL; neutralization IC50 [24]: > 50 mg/L; IC50 (µg/mL) neutralization [25]: 19.2 µg/mL |
| 1495_C14 (PGC14) (antibody) | – | – | – | – | – | – | – | – | – | > 50 | > 50 | > 50 | > 50 | 48 | > 50 | 15 | > 50 | – | – | – | IC50, pseudovirus neutralization, 1 hour Virus/Ab Incubation [26]: 0.35 mg/L; IC50, pseudovirus neutralization, 18 hour Virus/Ab Incubation [26]: 0.15 mg/L; IC50, pseudovirus neutralization, 1 hour Virus/Ab Incubation [27]: > 50 mg/L; IC50, pseudovirus neutralization, 18 hour Virus/Ab Incubation [27]: > 50 mg/L |
| 5329_C19 (PGT-136) (antibody) | – | 0.428 | > 50 | > 50 | > 50 | > 50 | > 50 | > 50 | > 50 | – | – | – | – | – | – | – | – | – | – | – | – |
| 5147_N06 (PGT-130) (antibody) | 0.8 | 0.136 | > 50 | > 50 | 0.009 | > 50 | > 50 | 1.27 | 0.019 | – | – | – | – | – | – | – | – | – | – | – | IC50 (ug/ml), neutralizing activity [28]: 0.0346 µg/mL |
| 4838_L06 (PGT-121) (antibody) | – | – | – | – | – | – | – | – | – | – | – | – | – | – | – | – | – | 28.4 | > 50 | 0.009 | IC50 (µg/mL) neutralization [21]: 0.123 µg/mL; IC50 (µg/mL) neutralization [25]: 0.007 µg/mL |
| 2F5 (antibody) | – | – | – | – | – | – | – | – | – | > 50 | > 50 | > 50 | > 50 | 2.22 | > 50 | 1.85 | 20.8 | – | – | – | – |
| 4877_D15 (PGT-122) (antibody) | – | – | – | – | – | – | – | – | – | – | – | – | – | – | – | – | – | 31.4 | > 50 | 0.015 | IC50 (ug/ml), neutralizing activity [28]: 0.0471 µg/mL; IC50 (µg/mL) neutralization [21]: 2 µg/mL; IC50, pseudovirus neutralization [22]: 0.018 mg/L; IC50 (µg/mL), pseudovirus neutralization [23]: > 50 µg/mL; neutralization IC50 [24]: 43.7 mg/L; IC50 (µg/mL) neutralization [25]: 0.032 µg/mL |
| 5343_B08 (PGT-135) (antibody) | 1.4 | 0.071 | > 50 | 21.1 | > 50 | > 50 | > 50 | > 50 | 23.5 | – | – | – | – | – | – | – | – | – | – | – | – |
| 5141_B17 (PGT-126) (antibody) | 0.7 | – | – | – | – | – | – | – | – | – | – | – | – | – | – | – | – | > 50 | > 50 | 0.17 | IC50 (ug/ml), neutralizing activity [28]: 0.014 µg/mL; IC50 (µg/mL) neutralization [21]: 0.111 µg/mL; IC50, pseudovirus neutralization [22]: 0.005 mg/L; IC50 (µg/mL), pseudovirus neutralization [23]: 0.037 µg/mL; neutralization IC50 [24]: > 50 mg/L; IC50 (µg/mL) neutralization [25]: 0.279 µg/mL |
| 5123_A06 (PGT-125) (antibody) | 0.5 | – | – | – | – | – | – | – | – | – | – | – | – | – | – | – | – | > 50 | > 50 | 2.36 | IC50 (ug/ml), neutralizing activity [28]: 0.0156 µg/mL; neutralization IC50 [28]: 0.0156 mg/L; neutralization IC80 [28]: 0.0462 mg/L; neutralization IC90 [28]: 0.0873 mg/L; neutralization IC95 [28]: 0.157 mg/L; IC50 (µg/mL) neutralization [21]: > 50 µg/mL; IC50, pseudovirus neutralization [22]: 0.006 mg/L; IC50 (µg/mL), pseudovirus neutralization [23]: > 50 µg/mL; neutralization IC50 [24]: > 50 mg/L; IC50 (µg/mL) neutralization [25]: 22.1 µg/mL |
| 2G12 (antibody) | – | – | – | – | – | – | – | – | – | > 50 | > 50 | 1.81 | > 50 | > 50 | > 50 | 0.37 | 17 | – | – | – | – |
| 5345_I01 (PGT-137) (antibody) | – | 5.06 | > 50 | > 50 | > 50 | > 50 | > 50 | > 50 | 6.3 | – | – | – | – | – | – | – | – | – | – | – | – |
| 1443_C16 (PG16) (TCN-116) (antibody) | – | – | – | – | – | – | – | – | – | > 50 | > 50 | 0.003 | 0.0067 | 0.003 | 14.8 | 0.001 | 0.004 | – | – | – | IC50, pseudovirus neutralization, 1 hour Virus/Ab Incubation [26]: < 0.0025 mg/L; IC50, pseudovirus neutralization, 18 hour Virus/Ab Incubation [26]: 4.99 mg/L; IC50, pseudovirus neutralization, 1 hour Virus/Ab Incubation [27]: 0.0211 mg/L; IC50, pseudovirus neutralization, 18 hour Virus/Ab Incubation [27]: 0.0085 mg/L |
| 5114_A19 (PGT-128) (antibody) | 1.4 | 0.025 | 0.838 | 12.7 | 0.044 | 16.7 | > 50 | 0.812 | 0.007 | – | – | – | – | – | – | – | – | – | – | – | – |
| 4858_P08 (PGT-123) (antibody) | 1.1 | – | – | – | – | – | – | – | – | – | – | – | – | – | – | – | – | > 50 | > 50 | 0.01 | IC50 (ug/ml), neutralizing activity [28]: 0.0283 µg/mL; IC50, pseudovirus neutralization [28]: 0.0283 mg/L; IC80, pseudovirus neutralization [28]: 0.0904 mg/L; IC90 (pseudovirus neutralization) [28]: 0.178 mg/L; IC95, pseudovirus neutralization [28]: 0.332 mg/L; IC50 (µg/mL) neutralization [21]: 0.605 µg/mL; IC50, pseudovirus neutralization [22]: 0.009 mg/L; IC50 (µg/mL), pseudovirus neutralization [23]: 9.79 µg/mL; neutralization IC50 [24]: > 50 mg/L; IC50 (µg/mL) neutralization [25]: 0.011 µg/mL |
| 4E10 (antibody) | – | – | – | – | – | – | – | – | – | 11 | 42.9 | 0.37 | > 50 | 3.24 | 5 | 3.3 | 14.4 | – | – | – | – |
| VRC01 (antibody) | – | – | – | – | – | – | – | – | – | – | – | – | – | – | – | – | – | – | – | – | IC50, pseudovirus neutralization [29]: 0.305 mg/L; IC50, pseudovirus neutralization [30]: 0.396 mg/L; IC50, pseudovirus neutralization [18]: 0.387 mg/L; IC50, pseudovirus neutralization [31]: 1.57 mg/L; neutralization IC50 [32]: 0.124 mg/L; neutralization IC50 [33]: 0.025 mg/L; neutralization IC50 [7]: 2.46 mg/L; IC50, pseudovirus neutralization [9]: 0.075 mg/L |

— patent publication US20200024330A1
